The values that follow come from publication PMC4061085.

The target of assay [1] is CK1δ from rat as GST-tagged fusion protein (rat) (UniProt Q06486).
Assay [2] has as its target CK1δ KD (kinase domain of CK1δ) (rat) (UniProt Q06486).
Assay [3] concerns the target CK1ε from human as HIS-tagged fusion protein (human) (UniProt P49674).
Sequence of UniProt P49674 (P49674 whole entry, the tested form may be a part): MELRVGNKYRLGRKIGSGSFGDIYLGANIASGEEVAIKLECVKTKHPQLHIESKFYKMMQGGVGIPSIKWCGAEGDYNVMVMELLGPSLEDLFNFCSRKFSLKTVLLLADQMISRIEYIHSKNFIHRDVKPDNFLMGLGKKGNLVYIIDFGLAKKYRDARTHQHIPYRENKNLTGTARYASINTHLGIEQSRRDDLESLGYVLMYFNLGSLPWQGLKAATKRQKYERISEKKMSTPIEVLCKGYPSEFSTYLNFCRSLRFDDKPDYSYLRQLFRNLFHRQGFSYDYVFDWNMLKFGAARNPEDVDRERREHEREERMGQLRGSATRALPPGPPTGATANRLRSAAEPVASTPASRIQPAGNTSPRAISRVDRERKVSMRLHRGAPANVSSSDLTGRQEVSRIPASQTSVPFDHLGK

For “Recombinant human α-tubulin1B (GST-tubulin) (from UniProt P68363 1-451) (natural protein)”, the Km of phosphorylation of GST-tubulin by the CK1 isoform (Michaelis-Menten kinetics, in vitro kinase assay, 32P incorporation, 30 min at 30°C) in assay [1] was determined as 0.205 µM; in assay [2], 0.266 µM; in assay [3], 0.329 µM.

On to “Recombinant human α-tubulin4A (GST-tubulin) (from UniProt P68366 1-448) (natural protein)”, for which the Km of phosphorylation of GST-tubulin by the CK1 isoform (Michaelis-Menten kinetics, in vitro kinase assay, 32P incorporation, 30 min at 30°C) in assay [1] was 0.337 µM; in assay [2] it was 0.438 µM; in assay [3], 0.602 µM.

“Recombinant human β-tubulin2A (GST-tubulin) (from UniProt Q13885 1-445) (natural protein)”: the values for the Km of phosphorylation of GST-tubulin by the CK1 isoform (Michaelis-Menten kinetics, in vitro kinase assay, 32P incorporation, 30 min at 30°C) in assay [1], in assay [2] and in assay [3] were 1.17 µM, 1.47 µM and 1.41 µM, respectively.
